The results in this text go back to patent US20090181027A1 (published 2009).

The target in assay [1] is IL-12 (mouse; target of the rat anti-mouse mAbs C17.8 and C18.2) (mouse) (UniProt P43432). Put plainly: cell-based or functional assay.
For assay [2], the target named is T1, human p40 single mutant S43R (human, UniProt P29460 23-328).
T1 construct: Transiently expressed in HEK293E cells; supernatant used
T1 sequence: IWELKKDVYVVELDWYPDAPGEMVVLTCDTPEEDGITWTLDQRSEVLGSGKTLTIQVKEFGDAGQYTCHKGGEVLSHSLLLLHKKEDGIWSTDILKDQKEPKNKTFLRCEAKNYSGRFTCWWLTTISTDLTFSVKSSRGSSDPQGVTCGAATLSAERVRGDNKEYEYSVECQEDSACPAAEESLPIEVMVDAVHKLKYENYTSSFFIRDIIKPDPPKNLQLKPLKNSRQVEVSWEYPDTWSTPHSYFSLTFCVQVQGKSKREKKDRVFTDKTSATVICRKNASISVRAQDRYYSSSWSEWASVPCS
Put plainly: capture assay, relative binding affinity to p40 muteins (FIG. 4). As to the method: (§1) Seven human p40 single mutants, M23T, L40T, S43R, E45A, E45R, E59R, and D62R, and two double mutants, S43R/E45A and S43R/E45R, are used in the studies. The wide-type human p40, WT hu-p40, was used as the control. The p40 mutants were transiently expressed in HEK293E cells. The supernatants were used for binding assays.
(§2) In brief, MSD high bind plates (Meso Scale Discovery, MD) were coated with 5 μl of a capture monoclonal antibody (5 μg/ml) at room temperature for 1 hour. […] One-hundred and fifty (150) μl of 5% MSD Blocker A buffer was added to each well and incubated for 1 hr at room temperature. Plates were washed three times with 0.1 M HEPES buffer (pH 7.4). These protein-charged ELISA plates were incubated with 25 μl of different transiently expressed p40 mutant supernatants (1:10 dilution with 0.1 M HEPES buffer, pH 7.4) for 1 hr at room temperature. The plates were washed three times with 0.1 M HEPES buffer (pH 7.4). Twenty-five (25) μl of different concentrations of MSD Sulfo-TAG labeled p40 mAb, ranging from 0 to 20 μg/ml, were dispensed to micro-wells. After incubation for 2 hrs shaking at room temperature, plates were washed 3 times with 0.1 M HEPES buffer (pH 7.4). One hundred and fifty (150) μl of diluted MSD Read Buffer T was dispensed into each well and the plates were analyzed with a SECTOR imager (MSD).

In assay [3] the target is T2, human p40 single mutant L40T (human, UniProt P29460 23-328).
T2 construct: Transiently expressed in HEK293E cells; supernatant used
T2 sequence: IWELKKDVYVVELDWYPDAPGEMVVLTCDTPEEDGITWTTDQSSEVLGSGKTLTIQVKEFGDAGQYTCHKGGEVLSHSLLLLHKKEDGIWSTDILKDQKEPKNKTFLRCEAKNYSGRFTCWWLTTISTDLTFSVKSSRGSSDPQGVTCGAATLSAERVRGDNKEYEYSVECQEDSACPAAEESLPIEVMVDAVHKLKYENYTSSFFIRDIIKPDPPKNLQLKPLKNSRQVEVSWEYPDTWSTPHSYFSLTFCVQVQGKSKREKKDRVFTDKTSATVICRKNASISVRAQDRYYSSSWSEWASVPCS
The assay is described as above. The protocol:
as §1, §2

For assay [4], the target named is T3, human p40 single mutant E45A (human, UniProt P29460 23-328).
T3 construct: Transiently expressed in HEK293E cells; supernatant used
T3 sequence: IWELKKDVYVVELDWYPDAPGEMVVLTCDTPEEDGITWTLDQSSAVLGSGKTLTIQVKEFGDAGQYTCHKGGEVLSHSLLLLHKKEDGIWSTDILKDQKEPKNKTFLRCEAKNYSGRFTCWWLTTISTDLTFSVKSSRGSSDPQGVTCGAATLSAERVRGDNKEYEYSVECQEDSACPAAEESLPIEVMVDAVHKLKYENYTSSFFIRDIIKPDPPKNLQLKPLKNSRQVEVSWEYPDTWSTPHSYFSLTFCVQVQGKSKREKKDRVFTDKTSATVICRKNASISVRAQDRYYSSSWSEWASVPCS
The assay is described as above. As to the method: as §1, §2

Assay [5] addresses T4, human p40 single mutant M23T (human, UniProt P29460 23-328).
T4 construct: Transiently expressed in HEK293E cells; supernatant used
T4 sequence: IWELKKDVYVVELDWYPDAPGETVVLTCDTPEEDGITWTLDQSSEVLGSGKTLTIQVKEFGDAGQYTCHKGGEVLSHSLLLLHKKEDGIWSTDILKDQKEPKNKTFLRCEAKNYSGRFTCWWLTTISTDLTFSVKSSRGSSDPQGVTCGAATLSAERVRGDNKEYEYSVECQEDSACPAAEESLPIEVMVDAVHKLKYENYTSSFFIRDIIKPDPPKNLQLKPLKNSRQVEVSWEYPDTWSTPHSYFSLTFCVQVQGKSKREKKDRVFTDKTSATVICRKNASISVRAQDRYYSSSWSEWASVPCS
The description is as above. The protocol:
as §1, §2

Sequence of IL-12 (mouse; target of the rat anti-mouse mAbs C17.8 and C18.2) (mouse) (P43432 23-335 limits assumed, chain 1 of 2): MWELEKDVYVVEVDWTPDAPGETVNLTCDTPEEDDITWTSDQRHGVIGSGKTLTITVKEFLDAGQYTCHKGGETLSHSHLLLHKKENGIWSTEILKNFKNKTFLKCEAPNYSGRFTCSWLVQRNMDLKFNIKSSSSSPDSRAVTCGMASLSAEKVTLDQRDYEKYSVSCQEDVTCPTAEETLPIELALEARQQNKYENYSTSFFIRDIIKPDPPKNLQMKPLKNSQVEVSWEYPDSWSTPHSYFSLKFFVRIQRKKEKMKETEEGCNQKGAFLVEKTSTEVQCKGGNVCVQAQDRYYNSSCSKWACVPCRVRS
Sequence of IL-12 (mouse; target of the rat anti-mouse mAbs C17.8 and C18.2) (mouse) (P43431 23-215 limits assumed, chain 2 of 2, further chain): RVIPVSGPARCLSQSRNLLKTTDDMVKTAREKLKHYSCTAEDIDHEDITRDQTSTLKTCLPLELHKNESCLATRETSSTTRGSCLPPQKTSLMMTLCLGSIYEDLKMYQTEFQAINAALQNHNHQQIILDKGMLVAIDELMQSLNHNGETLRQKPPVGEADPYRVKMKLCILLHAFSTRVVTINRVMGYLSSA

In assay [1], “C17.8 (rat anti-mouse IL-12/IL-23p40, IgG2a) (antibody)” registered an in vitro neutralization of IL-12, relative to the anti-p35 mAb (C18.2) (times (versus anti-p35 mAb)) of 5.

B1: IL-12/IL-23p40 mAb (fully human monoclonal antibody directed against human IL-12/23p40) (antibody, V domains shown)
VH: EVQLVQSGAEVKKPGESLKISCKGSGYSFTTYWLGWVRQMPGKGLDWIGIMSPVDSDIRYSPSFQGQVTMSVDKSITTAYLQWNSLKASDTAMYYCARRRPGQGYFDFWGQGTLVTVSS
VL: DIQMTQSPSSLSASVGDRVTITCRASQGISSWLAWYQQKPEKAPKSLIYAASSLQSGVPSRFSGSGSGTDFTLTISSLQPEDFATYYCQQYNIYPYTFGQGTKLEIKR
notes: Whole IgG made in a mammalian cell line and purified on protein A; also called IL-12/23p40 mAb; IL-12p40 antibody
With B1, the reduction of binding in assay [2] is approximately 40%; in assay [3], approximately 40%; in assay [4], approximately 70%; in assay [5], approximately 40%.
